From US20240398804

Biological target: YAP1 Y357F (UniProt P46937)

Substance: YES1 (Yamaguchi sarcoma viral oncogene homolog 1)
- YAP1 tyrosine phosphorylation (immunoprecipitation, immunoblot): Under conditions where YES1 or SRC phosphorylated YAP1, we failed to detect phosphorylation of the YAP1 Y357F mutant

Substance: WT SRC (expressed from plasmid in 293T cells)
- YAP1 tyrosine phosphorylation (immunoprecipitation, immunoblot): Under conditions where YES1 or SRC phosphorylated YAP1, we failed to detect phosphorylation of the YAP1 Y357F mutant
